B1: S626-161 (antibody, V domains shown)
VH: QLQLQESGPGLVKPSEALSLTCTVSGGSISTSNYYWGWIRQPPGKGLEWIGSIYYRGGTHYNPSLKTRVTISVDTSKNQFSLKLSSVTAADTAVYYCARHTYFYDIVGAAVWEPFDIWGQGTMVTVSS
VL: not shown
B2: S728-1157 IgG (antibody, V domains shown)
VH: EVQLVESGGGLVQPGGSLRLSCAASGLLVSRNYMNWVRQAPGKGLEWVSIIYSGGSTFYADSVEGRFTISRDESKNTLYLQMNSLRTDDTAVYYCARDLSDYGGIDCWGQGTLVTVSS
VL: YELTQPLSVSMALGQTARISCGGDNVGSQNVHWYQQRPGQAPVLVIYRDSNRPSGIPERFSGSKSGNTATLTISRAQAGDEADYYCQVWDSSTVAFGGGTKLTVL
notes: copies: 2 + 2
B3: S728-1157 Fab (Fab, V domains shown)
VH: EVQLVESGGGLVQPGGSLRLSCAASGLLVSRNYMNWVRQAPGKGLEWVSIIYSGGSTFYADSVEGRFTISRDESKNTLYLQMNSLRTDDTAVYYCARDLSDYGGIDCWGQGTLVTVSS
VL: YELTQPLSVSMALGQTARISCGGDNVGSQNVHWYQQRPGQAPVLVIYRDSNRPSGIPERFSGSKSGNTATLTISRAQAGDEADYYCQVWDSSTVAFGGGTKLTVL
B4: S451-1140 (antibody, V domains shown)
VH: EVQLVESGGGLVPPGGSLRLSCAASGFIFSNYAMTWVRQAPGKGLEWVSAISGGGGSTDYADSVKGRFTISRDNSKNTLYLQMNSLRAEDTAVYYCAKDLFGSGWSLFDNWGQGTLVTVS
VL: not shown

Legend:
[1] = target: recombinant FL spike B.1.351 Beta, stabilized by 2P mutations (SARS-CoV-2, B.1.351 Beta, strain)
[2] = target: recombinant FL spike B.1.617.2 Delta, stabilized by 2P mutations (SARS-CoV-2, B.1.617.2 Delta, strain)
[3] = target: recombinant FL spike B.1.1.7 Alpha, stabilized by 2P mutations (SARS-CoV-2 B.1.1.7 Alpha, strain)
[4] = target: recombinant FL spike P.1 Gamma, stabilized by 2P mutations (SARS-CoV-2, P.1 Gamma, strain)
[5] = target: T1, recombinant FL spike WT-6P (SARS-CoV-2 WT (Wuhan-Hu-1), UniProt P0DTC2, stabilised, biotin (EZ-Link Sulfo-NHS-Biotin) in the BLI experiments); assay: ELISA; settings: both partners purified
[6] = target: T1, recombinant FL spike WT-6P; assay: BLI; settings: both partners purified

Binder	binding result [1]	binding result [2]	binding result [3]	binding result [4]	binding result [5]	binding result [6]
B1	binds	binds	binds	binds	–	–
B2	–	–	–	–	binds	–
B3	–	–	–	–	–	binds
B4	binds	binds	binds	binds	–	–

Reference: paper PMC10104900 (The Journal of Clinical Investigation, 2023)
